Source: US6133417

What was measured:
[1] = molecular target: NADPH-cytochrome P-450 oxidoreductase purified from Sorghum bicolor (Sorghum bicolor)
[2] = molecular target: NADPH-cytochrome P-450 oxidoreductase purified from Sorghum bicolor (Sorghum bicolor); remark: listed apart in the source

Row | oxime production in reconstitution experiments in dilaurylphosphatidylcholine micelles (turnover rate) (nmol oxime per nmol P-450TYR per minute) [1] | conversion of L-tyrosine to p-hydroxyphenylacetaldehyde oxime by the enzyme reconstituted in DLPC micelles (turn-over number) [2] [min⁻¹] | Molecule
1 | 349 | – | modified cytochrome P-450TYR, in which the 35 N-terminal amino acids are replaced by the nine N-terminal amino acids from bovine 17alpha hydroxylase, expressed in E. coli (from UniProt P05185) (enzyme)
2 | – | 228 | cytochrome P-450TYR from Sorghum bicolor (L.) Moench (enzyme) ATMEVEAAAATVLAAPLLSSSAILKLLLFVVTLSYLARALRRPRKSTTKCSSTTCASPPAGVGNPPLPPGPVPWPVVGNLPEMLLNKPAFRWIHQMMREMGTDIACVKLGGVHVVSITCPEIAREVLRKQDANFISRPLTFASETFSGGYRNAVLSPYGDQWKKMRRVLTSEIICPSRHAWLHDKRTDEADNLTRYVYNLATKAATGDVAVDVRHVARHYCGNVIRRLMFNRRYFGEPQADGGPGPMEVLHMDAVFTSLGLLYAFCVSDYLPWLRGLDLDGHEKIVKEANVAVNRLHDTVIDDRWRQWKSGERQEMEDFLDVLITLKDAQGNPLLTIEEVKAQSQDITFAAVDNPSNAVEWALAEMVNNPEVMAKAMEELDRVVGRERLVQESDIPKLNYVKACIREAFRLHPVAPFNVPHVALADTTIAGYRVPKGSHVILSRTGLGRNPRVWDEPLRFYPDRHLATAASDVALTENDLRFISFSTGRRGCIAASLGTAMSVMLFGRLLQGFTWSKPAGVEAVDLSESKSDTFMATPLVLHAEPRLPAHLYPSISI
